What all share (assay type): biochemical, human
For one assay, the system named is Mcl-1 S121. In words: In vitro kinase reactions: percent phosphorylation of full-length recombinant Mcl-1 at S121. Particulars: for Percent phosphorylation S121, AVE: average of INJ1 and INJ2; for Percent phosphorylation S121, INJ1: sample injection 1; for Percent phosphorylation S121, INJ2: sample injection 2. The procedure:
(§1) To determine the suitability of residues in Mcl-1 as kinase substrates, 10 μM of Mcl-1 was incubated with selected kinase at enzyme concentrations between 25 and 100 nM. For these reactions the Mcl-1 was dialyzed into 20 mM Phosphate, 50 mM Tris pH 7.5 150 mM NaCl, 5 mM DTT and 0.5% CHAPS. The protein solution was further supplemented with MgCl2 to 10 mM and ATP to 1 mM prior to addition of kinase. Purified recombinant kinases were purchased from Invitrogen Co. (Carlsbad, Calif.).
(§2) 10 μl of each of the Mcl-1 kinase reactions (100 pmol) were loaded onto a 4-12% Bis-Tris gel for separation by SDS-PAGE after reduction. Mcl-1 bands were excised from the gel, dehydrated (50% acetonitrile in 50 mM ammonium bicarbonate then 100% acetonitrile washes), and incubated with 0.2 μg trypsin overnight at 37° C.
(§3) Samples were injected in duplicate via autosampler onto a nanoAcquity® UPLC (Waters, Milford, Mass.) and analyzed on-line via nanospray ionization into an LTQ-Orbitrap® mass spectrometer at a concentration of 300 fmol synthetic peptide mix per injection. Areas were integrated for the isotopic and kinase phosphorylated peptides, and compared to their non-phosphorylated peptide counterparts to obtain percent phosphorylation values.

The next assay relates to Mcl-1 T163. In words: In vitro kinase reactions: percent phosphorylation of full-length recombinant Mcl-1 at T163. Particulars: single kinase reactions. The procedure: as §1, §2, §3
The next assay relates to Mcl-1 S159/T163. In words: In vitro kinase reactions: percent phosphorylation of full-length recombinant Mcl-1 at S159+T163. Particulars: for Percent phosphorylation S159/T163, AVE: average; for Percent phosphorylation S159/T163, INJ1: sample injection 1; for Percent phosphorylation S159/T163, INJ2: sample injection 2. The procedure: as §1, §2, §3
The next assay concerns Mcl-1 T92. Nature of the assay: In vitro kinase reactions: percent phosphorylation of full-length recombinant Mcl-1 at T92. The conditions noted are these: single kinase reactions, peak areas of 0 and 1P, triple charged state. The procedure: as §1, §2, §3
The mark [1] stands for this setting: % phos on S159+T163, CDK1 + kinase panel reactions.
Setting [2] is: % phos on S159+T163, single kinase reactions.

B1: MAPK8: purified recombinant kinase purchased from Invitrogen (protein, UniProt P45983 1-427, looked up)
Mitogen-activated protein …: MSRSKRDNNFYSVEIGDSTFTVLKRYQNLKPIGSGAQGIVCAAYDAILERNVAIKKLSRPFQNQTHAKRAYRELVLMKCVNHKNIIGLLNVFTPQKSLEEFQDVYIVMELMDANLCQVIQMELDHERMSYLLYQMLCGIKHLHSAGIIHRDLKPSNIVVKSDCTLKILDFGLARTAGTSFMMTPYVVTRYYRAPEVILGMGYKENVDLWSVGCIMGEMVCHKILFPGRDYIDQWNKVIEQLGTPCPEFMKKLQPTVRTYVENRPKYAGYSFEKLFPDVLFPADSEHNKLKASQARDLLSKMLVIDASKRISVDEALQHPYINVWYDPSEAEAPPPKIPDKQLDEREHTIEEWKELIYKEVMDLEERTKNGVIRGQPSPLGAAVINGSQHPSSSSSVNDVSSMSTDPTLASDTDSSLEAAAGPLGCCR
Regarding B1, in the assay on Mcl-1 S121 (CDK1 + kinase panel reactions), the “Percent phosphorylation S121, AVE” value worked out at 70.06%; the “Percent phosphorylation S121, INJ1” value was 68.97%; the “Percent phosphorylation S121, INJ2” value was 71.14%. Moreover, in the assay on Mcl-1 S121 (single kinase reactions), the “Percent phosphorylation S121, AVE” value was 21.56%; the “Percent phosphorylation S121, INJ1” value turned out to be 17.66%; the “Percent phosphorylation S121, INJ2” value came out at 25.46%. In addition, the “Percent phosphorylation T163, AVE” value with Mcl-1 T163 (average of INJ1 and INJ2) came to 56.77%. The “Percent phosphorylation T163, INJ1” value with Mcl-1 T163 (sample injection 1) was determined as 60.42%. Besides, the “Percent phosphorylation T163, INJ2” value in the assay on Mcl-1 T163 (sample injection 2) amounted to 53.11%. Besides, in the assay with Mcl-1 S159/T163 (setting [1]), the “Percent phosphorylation S159/T163, AVE” value worked out at 9.45%; the “Percent phosphorylation S159/T163, INJ1” value amounted to 10.13%; the “Percent phosphorylation S159/T163, INJ2” value worked out at 8.76%. Further, in the assay with Mcl-1 S159/T163 (setting [2]), the “Percent phosphorylation S159/T163, AVE” value was determined as 16.98%; the “Percent phosphorylation S159/T163, INJ1” value is 15.54%; the “Percent phosphorylation S159/T163, INJ2” value is on record as 18.42%. Also, the “Percent phosphorylation T92, AVE” value in the assay with Mcl-1 T92 (average) came out at 6.04%. Moreover, the “Percent phosphorylation T92, INJ1” value with Mcl-1 T92 (sample injection 1) was 5.99%. Also, in the assay on Mcl-1 T92 (sample injection 2), the “Percent phosphorylation T92, INJ2” value is reported as 6.08%.

These data come from patent US20160136295A1, “BIOMARKERS FOR TREATMENT WITH ANTI-TUBULIN CHEMOTHERAPEUTIC COMPOUNDS” (GENENTECH, INC., priority 2012, published 2016).
